Data on eight substances can be found in patent US20110027907A1.

A word on the Kd: it is a measure of binding affinity in units of concentration. A lower Kd goes with higher affinity.

Experiment [1] deals with TfR-IgA Fc fusion protein, Leu258Ala mutant (Homo sapiens (Human)) (UniProt P01876). In words: flow cytometry, FcαRI-Ig on CHOP cells expressing TfR-IgA Fc fusion. In general terms: In flow cytometry, cells or beads pass a laser one at a time.
In experiment [2] the target is TfR-IgA Fc fusion protein, Leu257Ala mutant (Homo sapiens (Human)) (UniProt P01876). The description is as above.
Chain of TfR-IgA Fc fusion protein, Leu257Ala mutant (Homo sapiens (Human)) (P01876 123-331 L138A limits assumed): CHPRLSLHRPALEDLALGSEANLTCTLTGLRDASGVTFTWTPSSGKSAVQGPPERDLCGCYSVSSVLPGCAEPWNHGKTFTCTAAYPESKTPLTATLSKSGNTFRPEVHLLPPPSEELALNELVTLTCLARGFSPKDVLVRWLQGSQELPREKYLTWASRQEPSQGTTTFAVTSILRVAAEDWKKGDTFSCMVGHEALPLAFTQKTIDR
Experiment [3] concerns the target TfR-IgA Fc fusion protein, Leu256Ala mutant (Homo sapiens (Human)) (UniProt P01876). The description is as above.
Experiment [4] has as its target human serum IgA (human). In words: BIAcore, human serum IgA on CM5 chip, SSL7 mutant as analyte.
Experiment [5] concerns the target human serum complement factor C5 (human) (UniProt P01031). The experiment in a line: cell-based or functional assay.
In experiment [6] the target is TfR-IgA Fc fusion protein, His317Ala mutant (Homo sapiens (Human)) (UniProt P01876). The experiment in a line: flow cytometry, biotinylated rSSL7 on CHOP cells expressing TfR-IgA Fc fusion.
Chain of TfR-IgA Fc fusion protein, His317Ala mutant (Homo sapiens (Human)) (P01876 123-331 H198A limits assumed): as the sequence (P01876 123-331 L138A limits assumed) above, with A16L, H76A counted along it
Experiment [7] concerns the target TfR-IgA Fc fusion protein, Leu258Ala mutant (Homo sapiens (Human)) (UniProt P01876). Described as above.
For experiment [8], the target named is TfR-IgA Fc fusion protein, Asn316Ala mutant (Homo sapiens (Human)) (UniProt P01876). The experiment is described as above.
Chain of TfR-IgA Fc fusion protein, Asn316Ala mutant (Homo sapiens (Human)) (P01876 123-331 N197A limits assumed): as the sequence (P01876 123-331 L138A limits assumed) above, with A16L, N75A counted along it
Experiment [9] deals with TfR-IgA Fc fusion protein, Leu257Ala mutant (Homo sapiens (Human)) (UniProt P01876). The experiment is described as above.
Experiment [10] addresses TfR-IgA Fc fusion protein, Leu256Ala mutant (Homo sapiens (Human)) (UniProt P01876). The experiment is described as above.

Some results are limits rather than exact numbers.

Chain of TfR-IgA Fc fusion protein, Leu258Ala mutant (Homo sapiens (Human)) (P01876 123-331 L139A limits assumed): as the sequence (P01876 123-331 L138A limits assumed) above, with A16L, L17A counted along it
Chain of human serum complement factor C5 (human) (P01031 19-673 limits assumed, chain 1 of 2): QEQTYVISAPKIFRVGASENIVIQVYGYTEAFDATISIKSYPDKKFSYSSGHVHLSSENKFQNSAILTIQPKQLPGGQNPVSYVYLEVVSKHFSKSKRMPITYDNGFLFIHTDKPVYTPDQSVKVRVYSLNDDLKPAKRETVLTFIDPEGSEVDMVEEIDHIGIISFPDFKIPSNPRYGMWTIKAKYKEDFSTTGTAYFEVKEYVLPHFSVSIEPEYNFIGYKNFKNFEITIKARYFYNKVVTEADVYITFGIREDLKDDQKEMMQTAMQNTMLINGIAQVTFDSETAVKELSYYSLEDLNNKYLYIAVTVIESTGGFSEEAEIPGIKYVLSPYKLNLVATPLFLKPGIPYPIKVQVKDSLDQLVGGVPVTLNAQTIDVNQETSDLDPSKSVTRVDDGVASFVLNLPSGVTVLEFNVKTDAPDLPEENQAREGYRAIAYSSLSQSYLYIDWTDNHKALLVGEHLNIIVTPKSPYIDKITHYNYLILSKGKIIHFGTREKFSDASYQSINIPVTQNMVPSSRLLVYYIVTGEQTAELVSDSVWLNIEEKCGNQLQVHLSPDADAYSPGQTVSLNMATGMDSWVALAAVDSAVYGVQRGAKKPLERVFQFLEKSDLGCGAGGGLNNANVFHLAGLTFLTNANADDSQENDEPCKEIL
Chain of human serum complement factor C5 (human) (P01031 678-1676 limits assumed, chain 2 of 2): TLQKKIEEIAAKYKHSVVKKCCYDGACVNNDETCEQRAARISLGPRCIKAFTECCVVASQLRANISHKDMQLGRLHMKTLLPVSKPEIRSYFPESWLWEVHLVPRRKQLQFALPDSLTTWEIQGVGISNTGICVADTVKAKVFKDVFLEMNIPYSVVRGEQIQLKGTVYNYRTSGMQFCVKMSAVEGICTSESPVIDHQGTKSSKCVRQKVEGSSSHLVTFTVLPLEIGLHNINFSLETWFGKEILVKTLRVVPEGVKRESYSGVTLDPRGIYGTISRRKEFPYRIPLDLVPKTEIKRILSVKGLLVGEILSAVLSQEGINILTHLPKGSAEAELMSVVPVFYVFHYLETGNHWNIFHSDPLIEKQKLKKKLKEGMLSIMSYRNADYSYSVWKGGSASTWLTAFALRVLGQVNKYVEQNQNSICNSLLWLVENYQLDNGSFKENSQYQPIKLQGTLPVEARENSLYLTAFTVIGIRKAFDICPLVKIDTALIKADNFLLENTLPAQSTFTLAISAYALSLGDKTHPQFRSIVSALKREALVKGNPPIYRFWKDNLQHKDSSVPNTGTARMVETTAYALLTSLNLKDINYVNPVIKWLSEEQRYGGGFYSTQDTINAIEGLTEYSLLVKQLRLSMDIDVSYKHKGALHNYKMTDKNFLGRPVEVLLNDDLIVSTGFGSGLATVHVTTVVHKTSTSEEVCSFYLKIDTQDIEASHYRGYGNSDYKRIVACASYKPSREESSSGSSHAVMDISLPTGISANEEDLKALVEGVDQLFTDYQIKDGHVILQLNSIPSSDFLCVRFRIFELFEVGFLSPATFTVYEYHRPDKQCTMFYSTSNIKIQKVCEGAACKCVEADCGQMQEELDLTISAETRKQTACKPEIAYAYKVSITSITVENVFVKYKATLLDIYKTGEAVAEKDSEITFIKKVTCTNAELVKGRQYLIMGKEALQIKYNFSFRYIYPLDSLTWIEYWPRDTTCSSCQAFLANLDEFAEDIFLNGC
Chain of TfR-IgA Fc fusion protein, Leu256Ala mutant (Homo sapiens (Human)) (P01876 123-331 L137A limits assumed): as the sequence (P01876 123-331 L138A limits assumed) above, with L15A, A16L counted along it

On to “FcαRI-Ig (from UniProt P24071 22-227) (Fc fusion)”, for which the values for the fold reduction of binding against WT IgA Fc in experiment [1], in experiment [2] and in experiment [3] were greater than 100 fold, 2.3 fold and 3.3 fold, respectively.
Turning to SSL7 mutant L79A, in [4], the Change (fold in KD against SSL7 wild-type) was determined as 91 fold and the Kd worked out at 100 nM.
The like results for SSL7 mutant N38T were, in that order, 35 fold and 38 nM.
Taken in the same sequence, the figures for SSL7 mutant N83A were 4 fold and 4 nM.
Taken in the same sequence, the figures for SSL7 mutant P82A were 35 fold and 39 nM.
In experiment [4], SSL7 mutant R44A had a Change (fold in KD against SSL7 wild-type) of 3.2 fold and an equilibrium dissociation constant (Kd) of 3.6 nM.
With “SSL7 wild-type (haemolysis assay of FIG. 9)”, in experiment [5], the haemolysis at 2 µM, % of the maximum lysis came to 10% and the inhibition of haemolysis at 2 µM is 90%.
As to “recombinant SSL7 (GL1 S. aureus Greenlane), wild type”, the fold reduction of binding against WT IgA Fc was determined as 1.2 fold in experiment [6]; 6.5 fold in [7]; 1.8 fold in [8]; 15.4 fold in experiment [9]; 11.5 fold in [10].
